Source: patent US20060252692A1, “Inhibitors for use in hemostasis” (ZymoGenetics, Inc., priority 2002, published 2006)

Key:
TF-1 cells = test: Adhesion and spreading of TF-1 cells on zsig37-coated plates; type: cell-based; settings: addition of soluble zsig37
Protocol: The ability of zsig37 to stimulate adhesion and spreading of TF-1 cells was assayed as follows. A series of dilutions were prepared from C-terminal Glu-Glu-tagged zsig37, from 10 to 0.0625 ’g/ml, in either PBS or ELISA coating buffer (0.1 M NaCO3) and each was plated into a 96 well plate (Costar; Pleasanton, Calif.) at 100 μl/well. The plates were incubated at 37° C., 5% CO2 for 2 hours. The plates were then washed 3× with RPMI/10% FBS (RPMI 1640, 2 mM L-glutamine, 110 μg/ml sodium pyruvate, PSN and 10% heat inactivated fetal bovine serum) and allowed to block for 15 minutes.
TF-1 cells (derived from acute myeloid leukemia cells) were resuspended in RPMI/10% FBS and plated into at 10,000 cells/well into the zsig37CEE-coated 96 well plates at a final volume of 120 μl/well. The plate was incubated at 37° C. under 5% CO2 for 2 hours. The plates were then washed 3× with PBS and 200 μl/well growth media (RPMI/10% FBS, 5 ng/ml GM-CSF) was added. The cells were microscopically inspected before and after the wash.
A dye incorporation assay was also used to measure the number of adherent cells based on a colorimetric change and an increase in fluorescent signal. ALAMAR BLUE (AccuMed; Chicago, Ill.) was added to the 96 well plates and the cells were incubated at 37° C. under 5% CO2 overnight. […]

[1] = system: CCC4 osteoblast cell line, serum response element (SRE) luciferase; test: SRE-luciferase assay in CCC4 osteoblast cell line; type: cell-based, mice; settings: 1000 ng/ml zsig37, four hours
Protocol: Zsig37 polypeptides were assayed in a high throughput, in vitro assay to identify substances that selectively activate cellular responses in immortalized osteoblast cell lines. A mature osteoblast cell line derived from p53−/− (deficient) mice, CCC4, that is transfected with a plasmid containing an inducible serum response element (SRE) driving the expression of luciferase was used in the assay. These cells also express endogenous PTH, PDGF and bFGF receptors.
CCC4 lines were trypsinized and adjusted to 5×10^4 cells/ml in plating medium (alpha-MEM, 1% heat inactivated fetal bovine serum, 1 mM Na pyruvate and 2 mM L-glutamate) and plated (200 μl/well) into Dynatech Microlite opaque white microtiter plates (Dynatech, Chantilly, Va.) and incubated overnight at 37° C., 5% CO2. The growth medium was then aspirated and replaced with 50 μl/well assay medium (F-12 HAM, 0.5% bovine serum albumin, 20 mM HEPES, 1 mM sodium pyruvate and 2 mM L-glutamate). […] Fifty microliters/well of luciferase substrate (Luciferase Assay Reagent, E1501, Promega Corp.) was added and the Luciferase activity was detected using a Labsystems LUMINOSKAN at 2 second/well following a one second delay. The average basal (uninduced) signal was subtracted from readings as a percentage of the maximal induction produced by 3 ng/ml bFGF. […]

[2] = system: iliac artery crush injury/stenosis; test: Rabbit iliac artery crush injury/stenosis model; type: in vivo, New Zealand White rabbits
Protocol: The effect of zsig37 on blood flow dynamics following vascular injury in a rabbit iliac artery crush injury/stenosis model was also evaluated. Young adult male New Zealand White rabbits were anesthetized as described above. Via an abdominal incision, the aorto-iliac bifurcation was exposed and each iliac freed of surrounding tissues and the main branches ligated. Each iliac was fitted with an ultrasound flow probe to monitor blood flow through the vessel. Based on blood flow data, one iliac was selected to be used for the injury and the other was catheterized for delivery of the test sample. Rabbits were divided into dose groups of 6 animals/group. Test sample doses containing zsig37 increased in half-log increments from 3-1000 μg/kg over the selected infusion period. The test samples infusion was initiated followed by creation of a critical stenosis that reduced blood flow through the vessel by approximately 50%. After creation of the stenosis and a period of blood flow stabilization, the vessel was injured by crushing the vessel between the jaws of a smooth needle holder. The infusion was continued post-injury for a set period of time, 10-20 minutes. Blood flow through the injured vessel was monitored for 60 minutes post-injury. The animals were euthanized at he conclusion of the study period. […]

[3] = system: serotonin-contracted rat aortic sections; test: Relaxation of serotonin-induced rat aortic ring contractions; parameters: species or system Sprague-Dawley rats
Protocol: Male, Sprague-Dawley rats, approximately 3 months of age, were lightly anesthetized with CO2 and then decapitated. The thoracic aorta was then rapidly removed and placed in a modified Kreb's-Henseleit buffer (NaCl, 118.2 mM; KCl, 4.6 mM; CaCl2, 2.5 mM; MgSO4, 1.2 mM; NaHCO3, 24.8 mM; KH2PO4, 1.2 mM; and glucose, 10.0 mM). From each rat, four 2-3 mm aortic ring sections were cut after discarding the rough end of the aorta. In some experiments the endothelium was denuded, prior to cutting ring sections, by rubbing the lumen of the aorta along a 21 gauge needle. Denudation of the endothelium was verified by the addition of the acetylcholine analogue, carbachol, prior to determining zsig37 concentration-dependent responses.
The rings were fixed and connected to force displacement transducers in oxygenated (95% O2, 5% CO2), jacketed, glass organ baths kept at 30° C. in modified Kreb's-Henseleit buffer, pH 7.4. Resting tension was set at 1 gm, and continually re-adjusted to 1 gm over a one-hour incubation period. Fresh oxygenated modified Kreb's-Henseleit buffer was added to the baths every fifteen minutes during the resting incubation period. At the end of the one-hour incubation, the ring sections were contracted by the addition of 10 μM serotonin. After maximum contraction had been reached, approximately 15-20 minutes after the addition of the serotonin, cumulative concentration response curves for zsig37 were constructed. Zsig37 was added to 5 ml baths in volumes from 5 up to 150 μls, for final concentrations ranging from 1 ng/ml up to 40 μg/ml. Viability of the ring sections was verified at the end of the concentration response by the addition of forskolin (2.5 μM or 25 μM) or nitroglycerin (22 μM).

B1: zsig37: adipocyte complement related protein homolog, polypeptide of SEQ ID NO:2, inhibits collagen-mediated platelet activation and the complement pathway (protein, listed as Homo sapiens)
chain: MGSRGQGLLLAYCLLLAFASGLVLSRVPHVQGEQQEWEGTEELPSPPDHAERAEEQHEKYRPSQDQGLPASRCLRCCDPGTSMYPATAVPQINITILKGEKGDRGDRGLQGKYGKTGSAGARGHTGPKGQKGSMGAPGERCKSHYAAFSVGRKKPMHSNHYYQTVIFDTEFVNLYDHFNMFTGKFYCYVPGLYFFSLNVHTWNQKETYLHIMKNEEEVVILFAQVGDRSIMQSQSLMLELREQDQVWVRLYKGERENAIFSEELDTYITFSGYLVKHATEP
TF-1 cells
  block of cell adhesion to bound zsig37 by soluble zsig37: did not block adhesion
[1]
  luciferase expression as percentage of the maximal induction produced by 3 ng/ml bFGF: 73 to 75%
[2]; 3-1000 μg/kg infusion, 60 minute period
  patency time: tendency for zsig37 to promote increased patency time with increased dose up to 300 μg/kg
[2]; study with zsig37 hexamer, flow starting from occlusion
  thrombolytic activity: possesses thrombolytic activity
[3]
  time to plateau of relaxation response after addition: 3 to 5 min
  time to relaxation after addition of each concentration: 30 to 60 s
[3]; 10 μM serotonin
  concentration at which relaxation was first observed: above 100 ng/ml
[3]; 10 μM serotonin, with and without an intact endothelium, 1 ng/ml up to 40 μg/ml
  vasorelaxation of serotonin-contracted aortic sections: concentration-dependent vasorelaxation
